Experimental data as given in patent publication US20150086555A1.

Assays:
Conditions in all cases: remark: other sources report otherwise
[1] = target: recombinant homotrimeric HA A/Japan/305/57 H2N2 (Influenza A virus A/Japan/305/1957(H2N2)); experiment: protein microarray, purified IgG, trimeric HA
[2] = target: recombinant homotrimeric HA A/duck/Yangzhou/02/05 H8N4 (Influenza A virus A/duck/Yangzhou/02/2005(H8N4)); experiment: protein microarray, purified IgG, trimeric HA
[3] = target: recombinant homotrimeric HA A/California/4/09 H1N1 (Influenza A virus A/California/04/2009(H1N1)); experiment: protein microarray, purified IgG, trimeric HA
[4] = target: recombinant homotrimeric HA A/Solomon Islands/3/06 H1N1 (Influenza A virus A/Solomon Islands/3/2006(H1N1)); experiment: protein microarray, purified IgG, trimeric HA
[5] = target: recombinant homotrimeric HA A/Netherlands/219/03 H7N7 (Influenza A virus A/Netherlands/219/03(H7N7)); experiment: protein microarray, purified IgG, trimeric HA
[6] = target: recombinant homotrimeric HA A/Hong Kong/1073/99 H9N2 (Influenza A virus A/Hong Kong/1073/99 (H9N2)); experiment: protein microarray, purified IgG, trimeric HA
[7] = target: recombinant homotrimeric HA A/swine/Ontario/01911-2/99 H4N6 (Influenza A virus A/Swine/Ontario/01911-2/99 (H4N6)); experiment: protein microarray, purified IgG, trimeric HA
[8] = target: recombinant homotrimeric HA A/South Carolina/1/18 H1N1 (Influenza A virus A/South Carolina/1/18 (H1N1)); experiment: protein microarray, purified IgG, trimeric HA
[9] = target: recombinant homotrimeric HA A/northern shoveler/California/HKWF115/07 H6N4 (Influenza A virus A/northern shoveler/California/HKWF115/2007(H6N1)); experiment: protein microarray, purified IgG, trimeric HA
[10] = target: recombinant homotrimeric HA A/chicken/Vietnam/NCVD-016/08 H5N1 (Influenza A virus A/chicken/Vietnam/NCVD-016/2008(H5N1)); experiment: protein microarray, purified IgG, trimeric HA
[11] = target: recombinant homotrimeric HA A/Egypt/3300-NAMRU3/08 H5N1 (Influenza A virus A/Egypt/3300-NAMRU3/2008(H5N1)); experiment: protein microarray, purified IgG, trimeric HA
[12] = target: recombinant homotrimeric HA A/Hong Kong/2108/03 H9N2 (Influenza A virus A/HK/2108/2003(H9N2)); experiment: protein microarray, purified IgG, trimeric HA
[13] = target: T1, recombinant soluble homotrimeric HA of A/California/4/09 (H1N1) (Influenza A virus A/California/04/2009(H1N1)); experiment: HA microarray, BCC supernatant
[14] = target: T2, recombinant soluble homotrimeric HA of A/northern shoveler/California/HKWF115/07 (H6) (Influenza A virus A/northern shoveler/California/HKWF115/2007(H6N1)); experiment: HA microarray, BCC supernatant
[15] = target: T3, recombinant soluble homotrimeric HA of A/duck/Yangzhou/02/05 (H8N4) (Influenza A virus A/duck/Yangzhou/02/2005(H8N4)); experiment: HA microarray, BCC supernatant
[16] = target: T4, recombinant soluble homotrimeric HA of A/Solomon Islands/3/06 (H1N1) (Influenza A virus A/Solomon Islands/3/2006(H1N1)); experiment: HA microarray, BCC supernatant
[17] = target: T5, recombinant soluble homotrimeric HA of A/swine/Ontario/01911-2/99 (H4N6) (Influenza A virus A/Swine/Ontario/01911-2/99 (H4N6)); experiment: HA microarray, BCC supernatant
[18] = target: T6, recombinant soluble homotrimeric HA of A/Japan/305/57 (H2N2) (Influenza A virus A/Japan/305/1957(H2N2)); experiment: HA microarray, BCC supernatant
[19] = target: T7, recombinant soluble homotrimeric HA of A/Netherlands/219/03 (H7N7) (Influenza A virus A/Netherlands/219/03(H7N7)); experiment: HA microarray, BCC supernatant
[20] = target: T8, recombinant soluble homotrimeric HA of A/chicken/Vietnam/NCVD-016/08 (H5N1) (Influenza A virus A/chicken/Vietnam/NCVD-016/2008(H5N1)); experiment: HA microarray, BCC supernatant
[21] = target: T1, recombinant soluble homotrimeric HA of …; experiment: trimeric HA microarray, transfection supernatant set 5
[22] = target: T2, recombinant soluble homotrimeric HA of …; experiment: as above
[23] = target: T3, recombinant soluble homotrimeric HA of …; experiment: as above
[24] = target: T4, recombinant soluble homotrimeric HA of …; experiment: as above
[25] = target: T5, recombinant soluble homotrimeric HA of …; experiment: as above
[26] = target: T6, recombinant soluble homotrimeric HA of …; experiment: as above
[27] = target: recombinant soluble homotrimeric HA of A/South Carolina/1/18 (H1N1) (Influenza A virus A/South Carolina/1/18 (H1N1)); experiment: as above
[28] = target: T7, recombinant soluble homotrimeric HA of …; experiment: as above
[29] = target: T9, recombinant soluble homotrimeric HA of A/Egypt/3300-NAMRU3/08 (H5N1) (Influenza A virus A/Egypt/3300-NAMRU3/2008(H5N1)); experiment: as above
[30] = target: T8, recombinant soluble homotrimeric HA of …; experiment: as above
[31] = target: recombinant homotrimeric HA A/Vietnam/1203/04 H5N1 (Influenza A virus A/VietNam/1203/2004(H5N1)); experiment: protein microarray, purified IgG, trimeric HA
[32] = target: recombinant homotrimeric HA A/Hong Kong/156/97 H5N1 (Influenza A virus A/Hong Kong/156/97 (H5N1)); experiment: protein microarray, purified IgG, trimeric HA
[33] = target: recombinant homotrimeric HA A/Wisconsin/67/05 H3N2 (Influenza A virus A/Wisconsin/67/2005(H3N2)); experiment: protein microarray, purified IgG, trimeric HA
[34] = target: recombinant soluble homotrimeric HA of A/Anhui/1/05 (H5N1) (Influenza A virus A/Anhui/1/2005(H5N1)); experiment: HA microarray, BCC supernatant
[35] = target: T10, recombinant soluble homotrimeric HA of A/Vietnam/1203/04 (H5N1) (Influenza A virus A/VietNam/1203/2004(H5N1)); experiment: HA microarray, BCC supernatant
[36] = target: recombinant soluble homotrimeric HA of A/Hong Kong/2108/03 (H9N2) (Influenza A virus A/HK/2108/2003(H9N2)); experiment: HA microarray, BCC supernatant
[37] = target: T11, recombinant soluble homotrimeric HA of A/Wisconsin/67/05 (H3N2) (Influenza A virus A/Wisconsin/67/2005(H3N2)); experiment: HA microarray, BCC supernatant
[38] = target: T12, recombinant soluble homotrimeric HA of A/Indonesia/5/05 (H5N1) (Influenza A virus A/Indonesia/5/2005(H5N1)); experiment: HA microarray, BCC supernatant
[39] = target: T9, recombinant soluble homotrimeric HA of …; experiment: HA microarray, BCC supernatant
[40] = target: T10, recombinant soluble homotrimeric HA of …; experiment: trimeric HA microarray, transfection supernatant set 5
[41] = target: recombinant soluble homotrimeric HA of A/Hong Kong/156/97 (H5N1) (Influenza A virus A/Hong Kong/156/97 (H5N1)); experiment: as above
[42] = target: T11, recombinant soluble homotrimeric HA of …; experiment: as above
[43] = target: T12, recombinant soluble homotrimeric HA of …; experiment: as above

B1: TCN-544 (5082_A19) (antibody, V domains shown)
VH: QVQLQESGPGLVKPSETLSLTCTVSRGSIGHYFWSWIRQPPGKGLEWIGYISYSGSTKYNPSLRSRVTISVDTSKNQFSLNLNSVTATDTALYYCAREDYDILTGAGPGMEVWGQGTTVTVSS
VL: QSMLTQPPSASGTPGQRVTISCSGSSSNIGSNTVNWFKHLPGTAPKLLIYRNDLRPSGVPDRFSGSKSGTSASLAISGLQSEDEADYYCATWDDSLNGFYVFGTGTKVTVL
For B1, which Trimeric HA Binding: RLU [1] is on record?
The Trimeric HA Binding: RLU was 450 RLU.

And the Trimeric HA Binding: RLU [2]?
The Trimeric HA Binding: RLU was 380 RLU.

What about the Trimeric HA Binding: RLU [3] of the same binder?
The Trimeric HA Binding: RLU was 285 RLU.

What about the Trimeric HA Binding: RLU [4] of the same binder?
Its Trimeric HA Binding: RLU is 1010 RLU.

What about the Trimeric HA Binding: RLU [5] of the same binder?
The Trimeric HA Binding: RLU was 203 RLU.

What about the Trimeric HA Binding: RLU [6] of the same binder?
Its Trimeric HA Binding: RLU is 534 RLU.

And the Trimeric HA Binding: RLU [7]?
The Trimeric HA Binding: RLU was 154 RLU.

What about the Trimeric HA Binding: RLU [8] of the same binder?
The Trimeric HA Binding: RLU was 148 RLU.

And the Trimeric HA Binding: RLU [9]?
Its Trimeric HA Binding: RLU is 82 RLU.

And the Trimeric HA Binding: RLU [10]?
The Trimeric HA Binding: RLU was 402 RLU.

What about the Trimeric HA Binding: RLU [11] of the same binder?
Its Trimeric HA Binding: RLU is 2140 RLU.

And the Trimeric HA Binding: RLU [12]?
The Trimeric HA Binding: RLU was 145 RLU.

And the Trimeric HA Binding: RLU [13]?
The Trimeric HA Binding: RLU was 281 RLU.

What about the Trimeric HA Binding: RLU [14] of the same binder?
The Trimeric HA Binding: RLU was 1690 RLU.

What about the Trimeric HA Binding: RLU [15] of the same binder?
The Trimeric HA Binding: RLU was 464 RLU.

What about the Trimeric HA Binding: RLU [16] of the same binder?
Its Trimeric HA Binding: RLU is 179 RLU.

What about the Trimeric HA Binding: RLU [17] of the same binder?
The Trimeric HA Binding: RLU was 316 RLU.

What about the Trimeric HA Binding: RLU [18] of the same binder?
The Trimeric HA Binding: RLU was 187 RLU.

And the Trimeric HA Binding: RLU [19]?
Its Trimeric HA Binding: RLU is 1620 RLU.

And the Trimeric HA Binding: RLU [20]?
Its Trimeric HA Binding: RLU is 272 RLU.

What about the Trimeric HA Binding: RLU [21] of the same binder?
The Trimeric HA Binding: RLU was 706 RLU.

What about the Trimeric HA Binding: RLU [22] of the same binder?
Its Trimeric HA Binding: RLU is 2920 RLU.

What about the Trimeric HA Binding: RLU [23] of the same binder?
The Trimeric HA Binding: RLU was 9440 RLU.

What about the Trimeric HA Binding: RLU [24] of the same binder?
The Trimeric HA Binding: RLU was 997 RLU.

What about the Trimeric HA Binding: RLU [25] of the same binder?
The Trimeric HA Binding: RLU was 2390 RLU.

And the Trimeric HA Binding: RLU [26]?
Its Trimeric HA Binding: RLU is 1000 RLU.

What about the Trimeric HA Binding: RLU [27] of the same binder?
The Trimeric HA Binding: RLU was 1330 RLU.

What about the Trimeric HA Binding: RLU [28] of the same binder?
Its Trimeric HA Binding: RLU is 4650 RLU.

What about the Trimeric HA Binding: RLU [29] of the same binder?
Its Trimeric HA Binding: RLU is 19400 RLU.

What about the Trimeric HA Binding: RLU [30] of the same binder?
The Trimeric HA Binding: RLU was 3070 RLU.

B2: TCN-537 (3194_D21) (antibody, V domains shown)
VH: QVQLQQWGSGLLKPSETLSLTCAVYGGSFRDDYWTWIRQPPGKGLEWIGEINHSGRTNYNPSLKSRVTISVDTSLKQFSLKVISVTAADTAVYYCARGTSHVSRYFDWLPPTNWFDPWGQGTQVTVSS
VL: DIVLTQSPGTLSLSPGERATLSCRASQSVSSSYLAWYQQKPGQAPRLVMYGAATRATGIPDRFSGSGSGPDFTLTISRLEPEDFAMYYCQQYGNSPITFGQGTRLEIK
What does the source list for B2?
Trimeric HA Binding: RLU [31]: 5690 RLU; Trimeric HA Binding: RLU [1]: 19500 RLU; Trimeric HA Binding: RLU [3]: 10200 RLU; Trimeric HA Binding: RLU [5]: 729 RLU; Trimeric HA Binding: RLU [8]: 2840 RLU; Trimeric HA Binding: RLU [32]: 862 RLU; Trimeric HA Binding: RLU [33]: 154 RLU; Trimeric HA Binding: RLU [11]: 3190 RLU; Trimeric HA Binding: RLU [12]: 171 RLU; Trimeric HA Binding: RLU [13]: 21900 RLU; Trimeric HA Binding: RLU [34]: 335 RLU; Trimeric HA Binding: RLU [35]: 80 RLU; Trimeric HA Binding: RLU [14]: 5210 RLU; Trimeric HA Binding: RLU [36]: 147 RLU; Trimeric HA Binding: RLU [37]: 549 RLU; Trimeric HA Binding: RLU [38]: 14900 RLU; Trimeric HA Binding: RLU [15]: 7830 RLU; Trimeric HA Binding: RLU [17]: 19 RLU; Trimeric HA Binding: RLU [18]: 44700 RLU; Trimeric HA Binding: RLU [19]: 1050 RLU; Trimeric HA Binding: RLU [39]: 38200 RLU; Trimeric HA Binding: RLU [20]: 8620 RLU; Trimeric HA Binding: RLU [21]: 33800 RLU; Trimeric HA Binding: RLU [40]: 50300 RLU; Trimeric HA Binding: RLU [41]: 10700 RLU; Trimeric HA Binding: RLU [42]: 1940 RLU; Trimeric HA Binding: RLU [43]: 2420 RLU; Trimeric HA Binding: RLU [23]: 25500 RLU; Trimeric HA Binding: RLU [25]: 3280 RLU; Trimeric HA Binding: RLU [26]: 16200 RLU; Trimeric HA Binding: RLU [27]: 46800 RLU; Trimeric HA Binding: RLU [28]: 3650 RLU; Trimeric HA Binding: RLU [29]: 33500 RLU; Trimeric HA Binding: RLU [30]: 4480 RLU
